Tests used:
[1] = target: Soluble FcγRIIaR extracellular domain with C-terminal 10×His tag (UniProt P12318); assay: SPR (Biacore 4000), antibody captured on immobilised HER2, soluble receptor as analyte
[2] = target: Soluble FcγRIIb extracellular domain with C-terminal 10×His tag (UniProt P31994); assay: as above
[3] = target: FcγRIIaR, soluble extracellular domain (UniProt P12318); assay: SPR (Biacore 4000, Protocol 2): antibody captured on immobilised HER2, soluble receptor as analyte
[4] = target: FcγRIIb, soluble extracellular domain (UniProt P31994); assay: as above
[5] = target: C1q (human) (UniProt P02745); assay: ELISA; antibody coated, human C1q added, signal as % of WT
[6] = target: FcγRIIb (UniProt P31994); assay: SPR (Protocol 1); IIb-Fold over IIaR-Fold
[7] = target: FcγRIIaR (UniProt P12318); assay: SPR (Protocol 1), one-armed antibody captured on HER2, receptor as analyte; fold over wild-type
[8] = target: FcγRIIb (UniProt P31994); assay: as above

Sequence of FcγRIIb, soluble extracellular domain (P31994 43-217): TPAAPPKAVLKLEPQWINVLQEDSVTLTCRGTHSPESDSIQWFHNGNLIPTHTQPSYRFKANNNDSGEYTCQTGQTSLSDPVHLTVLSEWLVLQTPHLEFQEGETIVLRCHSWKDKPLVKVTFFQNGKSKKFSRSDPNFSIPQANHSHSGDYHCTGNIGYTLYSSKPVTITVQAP
Sequence of FcγRIIb (P31994 43-217 limits assumed): as the sequence (P31994 43-217) above
Sequence of Soluble FcγRIIaR extracellular domain with C-terminal 10×His tag (P12318 other isoform, or with tags, fused parts or gaps): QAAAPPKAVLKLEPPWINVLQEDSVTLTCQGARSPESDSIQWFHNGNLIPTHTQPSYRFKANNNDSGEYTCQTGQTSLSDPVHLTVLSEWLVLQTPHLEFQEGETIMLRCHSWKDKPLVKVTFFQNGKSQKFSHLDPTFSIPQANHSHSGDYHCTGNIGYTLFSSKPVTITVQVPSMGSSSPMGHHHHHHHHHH
Sequence of Soluble FcγRIIb extracellular domain with C-terminal 10×His tag (P31994 other isoform, or with tags, fused parts or gaps): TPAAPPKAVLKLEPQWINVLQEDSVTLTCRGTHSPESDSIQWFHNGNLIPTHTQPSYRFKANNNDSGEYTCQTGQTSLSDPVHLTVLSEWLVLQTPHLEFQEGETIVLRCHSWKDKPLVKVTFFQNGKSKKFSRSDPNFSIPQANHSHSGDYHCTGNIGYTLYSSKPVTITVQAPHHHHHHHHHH
Sequence of C1q (human) (P02745 23-245 limits assumed, chain 1 of 3): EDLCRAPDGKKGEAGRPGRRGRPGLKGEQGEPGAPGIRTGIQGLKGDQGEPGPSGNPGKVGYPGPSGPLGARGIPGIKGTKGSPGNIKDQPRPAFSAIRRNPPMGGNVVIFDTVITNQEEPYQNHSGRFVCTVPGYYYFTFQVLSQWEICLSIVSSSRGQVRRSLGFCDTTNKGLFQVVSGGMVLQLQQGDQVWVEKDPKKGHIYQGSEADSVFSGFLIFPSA
Sequence of C1q (human) (P02746 28-253 limits assumed, chain 2 of 3, further chain): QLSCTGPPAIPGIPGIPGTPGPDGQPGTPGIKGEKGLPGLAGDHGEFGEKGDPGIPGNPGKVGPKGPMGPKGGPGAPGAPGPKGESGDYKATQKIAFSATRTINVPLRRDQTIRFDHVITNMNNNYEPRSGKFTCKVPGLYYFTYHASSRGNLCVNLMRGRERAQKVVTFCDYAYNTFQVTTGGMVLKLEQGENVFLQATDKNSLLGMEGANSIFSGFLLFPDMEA
Sequence of C1q (human) (P02747 29-245 limits assumed, chain 3 of 3, further chain): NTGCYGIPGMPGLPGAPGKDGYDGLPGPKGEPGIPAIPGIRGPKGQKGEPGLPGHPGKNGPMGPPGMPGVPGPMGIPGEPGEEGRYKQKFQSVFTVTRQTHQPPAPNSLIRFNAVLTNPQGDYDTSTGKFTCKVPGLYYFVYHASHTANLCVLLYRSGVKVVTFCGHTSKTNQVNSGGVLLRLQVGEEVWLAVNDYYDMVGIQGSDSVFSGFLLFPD
Sequence of FcγRIIaR, soluble extracellular domain (P12318 34-217): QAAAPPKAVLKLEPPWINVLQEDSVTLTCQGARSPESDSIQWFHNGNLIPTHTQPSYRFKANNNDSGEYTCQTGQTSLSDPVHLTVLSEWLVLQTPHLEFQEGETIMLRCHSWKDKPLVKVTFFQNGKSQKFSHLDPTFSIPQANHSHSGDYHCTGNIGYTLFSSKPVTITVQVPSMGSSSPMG
Sequence of FcγRIIaR (P12318 34-217): as above

Row | Substance | Kd [1] | Kd [2] | Kd [3] | Kd [4] | other results
1 | Variant 26701 (A_E269Y_strat2), one-armed trastuzumab antibody | 67 nM | 21 nM |  |  | 
2 | Variant 26702 (A_E269T_strat2), one-armed trastuzumab antibody | 64 nM | 26 nM |  |  | 
3 | Variant 26704 (A_E269Q_strat2), one-armed trastuzumab antibody | 66 nM | 22 nM |  |  | 
4 | Variant 26705 (A_E269N_strat2), one-armed trastuzumab antibody | 83 nM | 26 nM |  |  | 
5 | Variant 26707 (A_E269R_strat2), one-armed trastuzumab antibody | 77 nM | 23 nM |  |  | 
6 | Variant 26708 (A_E269K_strat2), one-armed trastuzumab antibody | 70 nM | 22 nM |  |  | 
7 | Variant 26710 (A_E269P_strat2), one-armed trastuzumab antibody | 78 nM | 27 nM |  |  | 
8 | Variant 26714 (A_D270L_strat2), one-armed trastuzumab antibody | 79 nM | 33 nM |  |  | 
9 | Variant 26716 (A_D270F_strat2), one-armed trastuzumab antibody | 48 nM | 17 nM |  |  | 
10 | Variant 26717 (A_D270W_strat2), one-armed trastuzumab antibody | 83 nM | 27 nM |  |  | 
11 | Variant 26718 (A_D270Y_strat2), one-armed trastuzumab antibody | 69 nM | 26 nM |  |  | 
12 | Variant 26723 (A_D270E_strat2), one-armed trastuzumab antibody with heterodimeric IgG1 Fc |  |  | 42 nM | 13 nM | 
13 | Variant 26724 (A_D270R_strat2), one-armed trastuzumab antibody with heterodimeric IgG1 Fc |  |  |  | 89 nM | 
14 | Variant 26729 (A_P271A_strat2), one-armed trastuzumab antibody with heterodimeric IgG1 Fc |  |  | 93 nM | 34 nM | 
15 | Variant 26730 (A_P271V_strat2), one-armed trastuzumab antibody with heterodimeric IgG1 Fc |  |  | 85 nM | 27 nM | 
16 | Variant 26731 (A_P271L_strat2), one-armed trastuzumab antibody with heterodimeric IgG1 Fc |  |  | 68 nM | 22 nM | 
17 | Variant 26732 (A_P271I_strat2), one-armed trastuzumab antibody with heterodimeric IgG1 Fc |  |  | 70 nM |  | 
18 | Variant 26736 (A_P271T_strat2), one-armed trastuzumab antibody with heterodimeric IgG1 Fc |  |  | 120 nM | 47 nM | 

Row | Substance | Kd [1] | Kd [2] | Kd [3] | Kd [4] | other results
19 | Variant 26737 (A_P271S_strat2), one-armed trastuzumab antibody with heterodimeric IgG1 Fc |  |  | 90 nM | 36 nM | 
20 | Variant 26738 (A_P271Q_strat2), one-armed trastuzumab antibody with heterodimeric IgG1 Fc |  |  | 77 nM | 26 nM | 
21 | Variant 26740 (A_P271D_strat2), one-armed trastuzumab antibody with heterodimeric IgG1 Fc |  |  |  | 29 nM | 
22 | Variant 32263 (trastuzumab FSA; chain A L235A_strat1, chain B G330*K_strat1) (antibody) |  |  |  |  | C1q Binding (% WT) [5]: 170 % WT
23 | Variant 32268 (trastuzumab FSA; chain A S239T_strat1, chain B G330*K_strat1) (antibody) |  |  |  |  | C1q Binding (% WT) [5]: 210 % WT
24 | Variant 32273 (trastuzumab FSA; chain A L235R_strat2, chain B G237L_strat2) (antibody) |  |  |  |  | C1q Binding (% WT) [5]: 2 % WT
25 | Variant 32277 (trastuzumab FSA; chain A S239G_strat2, chain B G237L_strat2) (antibody) |  |  |  |  | C1q Binding (% WT) [5]: 0 % WT
26 | variant 16488, one-armed trastuzumab antibody (Scaffold 2), chain B E269K_G236D |  |  |  |  | IIb/IIaR Selectivity [6]: 0.91; IIaR-Fold (fold affinity over wild-type) [7]: 0.17 fold; IIb-Fold (fold affinity over wild-type) [8]: 0.16 fold
27 | variant 16489, one-armed trastuzumab antibody (Scaffold 2), chain A E269K, chain B G236D |  |  |  |  | IIb/IIaR Selectivity [6]: 2.1; IIaR-Fold (fold affinity over wild-type) [7]: 0.41 fold; IIb-Fold (fold affinity over wild-type) [8]: 0.85 fold
28 | variant 16491, one-armed trastuzumab antibody (Scaffold 2), chain B E269K_G236N |  |  |  |  | IIb/IIaR Selectivity [6]: 2.48; IIaR-Fold (fold affinity over wild-type) [7]: 0.1 fold; IIb-Fold (fold affinity over wild-type) [8]: 0.24 fold
29 | variant 16492, one-armed trastuzumab antibody (Scaffold 2), chain A E269K, chain B G236N |  |  |  |  | IIb/IIaR Selectivity [6]: 1.83; IIaR-Fold (fold affinity over wild-type) [7]: 0.07 fold; IIb-Fold (fold affinity over wild-type) [8]: 0.13 fold
30 | variant 16531, one-armed trastuzumab antibody (Scaffold 2), chain B E269K_S267I |  |  |  |  | IIb/IIaR Selectivity [6]: 1.45; IIaR-Fold (fold affinity over wild-type) [7]: 0.19 fold; IIb-Fold (fold affinity over wild-type) [8]: 0.27 fold
31 | variant 16532, one-armed trastuzumab antibody (Scaffold 2), chain A E269K, chain B S267I |  |  |  |  | IIb/IIaR Selectivity [6]: 1.84; IIaR-Fold (fold affinity over wild-type) [7]: 0.51 fold; IIb-Fold (fold affinity over wild-type) [8]: 0.95 fold
32 | variant 16549, one-armed trastuzumab antibody (Scaffold 2), chain B E269K_L234D |  |  |  |  | IIb/IIaR Selectivity [6]: 1.83; IIaR-Fold (fold affinity over wild-type) [7]: 0.19 fold; IIb-Fold (fold affinity over wild-type) [8]: 0.35 fold
33 | variant 16550, one-armed trastuzumab antibody (Scaffold 2), chain A E269K, chain B L234D |  |  |  |  | IIb/IIaR Selectivity [6]: 1.25; IIaR-Fold (fold affinity over wild-type) [7]: 0.63 fold; IIb-Fold (fold affinity over wild-type) [8]: 0.79 fold
34 | variant 16570, one-armed trastuzumab antibody (Scaffold 2), chain B E269K_L234F |  |  |  |  | IIb/IIaR Selectivity [6]: 3.35; IIaR-Fold (fold affinity over wild-type) [7]: 0.11 fold; IIb-Fold (fold affinity over wild-type) [8]: 0.37 fold
35 | variant 16571, one-armed trastuzumab antibody (Scaffold 2), chain A E269K, chain B L234F |  |  |  |  | IIb/IIaR Selectivity [6]: 0.97; IIaR-Fold (fold affinity over wild-type) [7]: 0.42 fold; IIb-Fold (fold affinity over wild-type) [8]: 0.4 fold
36 | variant 16576, one-armed trastuzumab antibody (Scaffold 2), chain B E269K_A327G_A330S_P331S_L234F_H268Q_K274Q |  |  |  |  | IIb/IIaR Selectivity [6]: 1.89; IIaR-Fold (fold affinity over wild-type) [7]: 0.11 fold; IIb-Fold (fold affinity over wild-type) [8]: 0.21 fold

Continued, in another order:

Row | Kd [1] | Kd [2] | Kd [3] | Kd [4] | Substance | other results
37 | 60 nM | 24 nM |  |  | Variant 26703 (A_E269S_strat2), one-armed trastuzumab antibody | 
38 | 61 nM | 20 nM |  |  | Variant 26706 (A_E269D_strat2), one-armed trastuzumab antibody | 
39 | 69 nM | 22 nM |  |  | Variant 26709 (A_E269H_strat2), one-armed trastuzumab antibody | 
40 | 180 nM | 53 nM |  |  | Variant 26711 (A_D270G_strat2), one-armed trastuzumab antibody | 
41 | 80 nM | 29 nM |  |  | Variant 26712 (A_D270A_strat2), one-armed trastuzumab antibody | 
42 | 89 nM | 41 nM |  |  | Variant 26713 (A_D270V_strat2), one-armed trastuzumab antibody | 
43 | 81 nM | 25 nM |  |  | Variant 26715 (A_D270I_strat2), one-armed trastuzumab antibody | 
44 | 63 nM | 23 nM |  |  | Variant 26719 (A_D270T_strat2), one-armed trastuzumab antibody | 
45 | 79 nM | 29 nM |  |  | Variant 26720 (A_D270S_strat2), one-armed trastuzumab antibody | 
46 |  |  | 87 nM | 28 nM | Variant 26721 (A_D270Q_strat2), one-armed trastuzumab antibody with heterodimeric IgG1 Fc | 
47 |  |  | 77 nM | 21 nM | Variant 26722 (A_D270N_strat2), one-armed trastuzumab antibody with heterodimeric IgG1 Fc | 
48 |  |  | 74 nM | 23 nM | Variant 26726 (A_D270H_strat2), one-armed trastuzumab antibody with heterodimeric IgG1 Fc | 
49 |  |  | 180 nM | 88 nM | Variant 26727 (A_D270P_strat2), one-armed trastuzumab antibody with heterodimeric IgG1 Fc | 
50 |  |  | 64 nM | 22 nM | Variant 26728 (A_P271G_strat2), one-armed trastuzumab antibody with heterodimeric IgG1 Fc | 
51 |  |  | 87 nM | 31 nM | Variant 26733 (A_P271F_strat2), one-armed trastuzumab antibody with heterodimeric IgG1 Fc | 
52 |  |  | 72 nM | 28 nM | Variant 26734 (A_P271W_strat2), one-armed trastuzumab antibody with heterodimeric IgG1 Fc | 
53 |  |  | 110 nM | 35 nM | Variant 26735 (A_P271Y_strat2), one-armed trastuzumab antibody with heterodimeric IgG1 Fc | 
54 |  |  | 90 nM | 28 nM | Variant 26739 (A_P271N_strat2), one-armed trastuzumab antibody with heterodimeric IgG1 Fc | 

Source: patent publication US20240294646A1
